Results: the supplement of paper PMC9876800

Tested on: peptide library, one residue held at a place counted from the S/T acceptor
Experiment: relative phosphorylation of the sub-library (ratio to the mean residue at this position); higher = residue favoured
Conditions: human
In short: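 In 384-well plates, purified recombinant kinases (human or orthologue constructs) were incubated for 90 min under kinase-specific conditions with 50 μM biotinylated degenerate peptide sub-libraries and 50 μM ATP spiked with γ-32P-ATP. Each sub-library fixed a single residue at one position around a central Ser/Thr. Relative sub-library phosphorylation, measured by phosphorimaging and densitometry of streptavidin membrane spots, is given as a ratio to the mean residue at that position.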

TAOK1, construct: aa1-356, sequence (Q7L7X3 1-356, looked up): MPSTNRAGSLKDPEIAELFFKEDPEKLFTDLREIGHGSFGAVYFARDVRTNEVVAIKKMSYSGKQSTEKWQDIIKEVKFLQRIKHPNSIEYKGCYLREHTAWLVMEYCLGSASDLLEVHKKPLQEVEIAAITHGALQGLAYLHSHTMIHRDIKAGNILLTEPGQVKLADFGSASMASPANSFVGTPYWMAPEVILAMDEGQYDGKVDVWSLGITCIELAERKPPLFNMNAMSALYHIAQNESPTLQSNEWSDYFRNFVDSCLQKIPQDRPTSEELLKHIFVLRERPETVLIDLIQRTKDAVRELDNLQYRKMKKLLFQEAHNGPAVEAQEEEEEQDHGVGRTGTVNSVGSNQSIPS
PLK4, construct: aa1-836, sequence (O00444 1-836, looked up): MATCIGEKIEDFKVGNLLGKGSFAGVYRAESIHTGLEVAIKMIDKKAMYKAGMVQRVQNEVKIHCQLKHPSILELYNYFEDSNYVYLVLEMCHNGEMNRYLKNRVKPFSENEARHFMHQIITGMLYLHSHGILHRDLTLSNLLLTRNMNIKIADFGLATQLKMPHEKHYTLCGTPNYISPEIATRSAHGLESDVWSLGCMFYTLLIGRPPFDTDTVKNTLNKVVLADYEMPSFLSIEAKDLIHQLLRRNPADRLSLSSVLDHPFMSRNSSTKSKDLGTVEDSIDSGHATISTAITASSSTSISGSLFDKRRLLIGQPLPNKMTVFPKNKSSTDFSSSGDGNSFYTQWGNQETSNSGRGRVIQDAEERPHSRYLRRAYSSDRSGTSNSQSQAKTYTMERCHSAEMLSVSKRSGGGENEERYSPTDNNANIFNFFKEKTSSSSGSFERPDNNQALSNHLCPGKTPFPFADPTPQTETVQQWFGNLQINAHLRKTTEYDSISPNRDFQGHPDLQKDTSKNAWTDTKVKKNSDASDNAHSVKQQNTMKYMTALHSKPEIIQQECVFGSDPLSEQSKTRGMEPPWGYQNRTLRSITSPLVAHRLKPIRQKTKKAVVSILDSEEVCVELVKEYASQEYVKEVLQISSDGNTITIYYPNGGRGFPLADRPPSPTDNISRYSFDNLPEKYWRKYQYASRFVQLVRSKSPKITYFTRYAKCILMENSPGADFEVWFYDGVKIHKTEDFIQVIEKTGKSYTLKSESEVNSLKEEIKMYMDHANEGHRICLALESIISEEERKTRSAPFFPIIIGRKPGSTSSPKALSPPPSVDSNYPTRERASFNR
TRPM7, construct: aa1158-1865, sequence (Q96QT4 1158-1865, looked up): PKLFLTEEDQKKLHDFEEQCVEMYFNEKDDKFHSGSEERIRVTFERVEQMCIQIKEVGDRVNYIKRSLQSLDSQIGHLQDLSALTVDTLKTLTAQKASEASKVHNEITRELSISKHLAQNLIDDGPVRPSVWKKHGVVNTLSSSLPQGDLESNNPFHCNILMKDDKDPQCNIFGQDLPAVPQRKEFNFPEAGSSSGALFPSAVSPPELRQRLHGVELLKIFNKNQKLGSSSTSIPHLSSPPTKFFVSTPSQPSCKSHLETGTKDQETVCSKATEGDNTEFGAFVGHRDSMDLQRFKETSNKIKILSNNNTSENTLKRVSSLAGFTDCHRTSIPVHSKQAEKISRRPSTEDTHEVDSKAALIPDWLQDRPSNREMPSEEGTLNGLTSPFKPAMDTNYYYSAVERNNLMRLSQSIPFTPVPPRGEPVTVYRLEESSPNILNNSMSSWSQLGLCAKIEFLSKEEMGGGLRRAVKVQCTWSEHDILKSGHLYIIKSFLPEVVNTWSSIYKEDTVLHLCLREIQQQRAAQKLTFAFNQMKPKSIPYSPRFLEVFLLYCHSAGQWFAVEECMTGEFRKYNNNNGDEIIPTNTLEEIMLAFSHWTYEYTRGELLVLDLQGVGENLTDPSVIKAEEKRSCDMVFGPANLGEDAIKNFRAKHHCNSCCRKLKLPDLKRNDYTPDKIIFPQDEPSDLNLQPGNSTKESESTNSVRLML

TAOK1, construct: aa1-356 (from UniProt Q7L7X3)
relative phosphorylation
Conditions	at +1	at +2	at +3	at +4	at -1	at -2	at -3	at -4	at -5
A fixed	0.401	0.732	0.799	0.651	0.775	1.05	0.861	0.969	0.986
D fixed	0.16	0.494	0.336	0.409	0.645	0.589	0.515	0.911	0.93
E fixed	0.122	0.282	0.296	0.421	0.345	0.42	0.59	0.969	0.816
F fixed	1.53	0.505	0.853	0.835	1.07	1.74	0.817	0.95	0.933
G fixed	0.352	0.705	1.06	0.773	1.47	1.42	1.73	1.29	1.18
H fixed	0.855	1.11	0.901	1.17	1.52	0.583	0.99	1.04	1.08
I fixed	1.83	0.612	0.692	0.786	0.381	0.577	0.533	0.696	0.757
K fixed	0.504	2.83	2.32	1.79	1.15	1.02	2.24	1.29	1.36
L fixed	1.85	0.54	0.809	0.727	1.08	0.629	0.554	0.728	0.773
M fixed	2.05	0.721	0.686	0.861	1.45	0.92	0.661	0.873	0.88
N fixed	0.398	1.46	0.87	0.805	1.31	0.9	0.875	0.999	0.982
P fixed	0.319	0.777	1.13	0.711	0.47	0.858	0.988	1.01	1.02
Q fixed	0.461	0.837	0.762	0.759	0.746	0.742	0.879	0.937	0.844
R fixed	0.559	3.26	2.89	2.44	1.44	1.08	1.81	1.39	1.24
V fixed	1.21	0.723	0.602	0.635	0.419	0.658	0.505	0.765	0.821
W fixed	2.88	0.622	1.08	1.76	0.996	1.13	1.06	1.05	1.21
Y fixed	1.52	0.794	0.916	1.46	1.73	2.68	1.39	1.13	1.18
pThr fixed	0.365	0.32	0.327	0.386	0.306	0.469	0.667	0.78	0.881
pTyr fixed	0.295	0.337	0.45	0.432	1.56	0.733	0.622	0.777	0.963

TRPM7, construct: aa1158-1865 (from UniProt Q96QT4)
relative phosphorylation
Conditions	at +1	at +2	at +3	at +4	at -1	at -2	at -3	at -4	at -5
A fixed	0.649	1.18	1.19	0.591	0.902	1.13	0.852	1.08	1.17
D fixed	0.266	0.121	0.341	0.604	0.484	0.551	0.659	0.821	0.972
E fixed	0.501	0.0976	0.256	0.561	0.489	0.576	0.836	1.07	1.05
F fixed	0.859	1.81	0.854	0.958	0.58	1.19	1.06	1.19	1.03
G fixed	0.451	0.661	0.904	0.871	0.406	1.28	0.897	1.08	1.4
H fixed	1.1	1.22	1.22	1.34	1.47	0.842	1.05	0.86	1.1
I fixed	1.26	0.601	0.42	0.781	0.46	0.446	0.686	0.668	0.532
K fixed	2.16	1.21	2.47	2.09	2.76	0.931	1.13	1.31	1.24
L fixed	1.18	0.477	0.662	0.859	0.996	0.868	1.01	0.872	0.608
M fixed	1.06	0.808	0.664	1.12	0.969	1.42	1.19	1.17	0.767
N fixed	0.54	0.445	1.11	1.16	1.25	0.857	1.48	1.09	1.2
P fixed	0.142	1.42	0.623	0.676	0.896	1.28	1.07	0.972	1.1
Q fixed	1.58	1.11	1.15	1.17	1.07	1.11	0.995	0.948	1.01
R fixed	2.14	2.06	2.52	1.61	2.11	0.975	1.36	1.17	1.29
V fixed	1.1	0.572	0.573	0.637	0.586	0.553	0.74	0.675	0.732
W fixed	0.79	1.4	0.831	1.13	0.487	2.17	1.02	1.12	0.976
Y fixed	1.22	1.81	1.21	0.852	1.08	0.822	0.954	0.884	0.811
pThr fixed	0.455	0.317	0.499	0.68	0.488	0.704	0.893	1.11	1.05
pTyr fixed	0.856	0.489	0.677	0.541	0.776	0.675	1.09	0.916	1.08

PLK4, construct: aa1-836 (from UniProt O00444)
relative phosphorylation
Conditions	at +1	at +2	at +3	at +4	at -1	at -2	at -3	at -4	at -5
A fixed	0.459	0.471	0.813	1.24	0.953	0.708	1.03	1.24	1.26
D fixed	0.141	0.195	0.641	0.629	0.452	2.77	0.913	1.08	0.912
E fixed	0.135	0.148	0.874	0.705	0.493	1.26	0.791	0.991	0.918
F fixed	3.31	2.2	1.18	0.861	0.621	0.829	0.569	0.691	0.873
G fixed	0.61	0.24	0.821	1.4	2.08	1.35	1.25	1.42	1.43
H fixed	0.675	1.6	1.03	1.09	0.988	1.15	0.848	1.14	1.21
I fixed	1.67	1.39	1.4	1.01	0.347	0.395	0.478	0.625	0.582
K fixed	0.413	0.219	0.704	1.05	2.14	0.712	1.07	1.04	1.28
L fixed	1.62	1.35	1.33	1.01	0.858	0.398	0.715	0.748	0.771
M fixed	2.44	0.906	1.2	1.05	1.33	0.676	0.867	0.893	0.728
N fixed	0.409	0.294	0.58	0.829	1.09	2.41	1.97	1.54	1.28
P fixed	0.168	0.141	0.381	1.55	0.331	0.486	1.98	1.25	0.926
Q fixed	0.58	0.252	0.785	1.01	1.27	0.778	0.96	0.956	0.825
R fixed	0.44	0.216	0.609	0.711	1.85	0.75	1.14	0.944	1.07
V fixed	1.08	1.12	1.36	0.969	0.571	0.44	1.08	0.776	0.87
W fixed	1.47	2.81	1.84	0.991	0.672	1	0.717	0.917	1.21
Y fixed	1.38	3.44	1.44	0.889	0.955	0.881	0.627	0.746	0.848
pThr fixed	0.54	0.446	0.572	0.592	0.571	0.796	1.08	0.931	0.889
pTyr fixed	0.526	1.37	0.734	0.52	1.06	0.753	0.841	0.86	0.806

MAP3K2, construct: Full length (from UniProt Q9Y2U5)
relative phosphorylation
Conditions	at +1	at +2	at +3	at +4	at -1	at -2	at -3	at -4	at -5
A fixed	1.01	0.873	0.802	1.04	1.04	1.2	0.975	1.07	1.12
D fixed	0.302	0.413	0.63	0.567	1.08	1.6	1.61	1.5	1.37
E fixed	0.296	0.344	0.477	0.691	0.935	0.953	1.53	1.43	1.16
F fixed	0.82	0.696	1.46	0.775	0.673	1.1	0.782	1.01	0.923
G fixed	0.868	0.663	0.865	0.981	1.41	1.27	1.65	1.23	1.22
H fixed	0.954	2.2	1.06	0.983	1.36	1.1	0.891	1.02	1.06
I fixed	1.59	0.632	1.09	0.877	0.549	0.82	0.608	0.73	0.828
K fixed	0.721	1.51	1.09	1.9	1.19	0.765	0.988	0.946	1.07
L fixed	1.29	0.694	1.16	0.918	0.904	0.704	0.698	0.749	0.743
M fixed	1.82	1.02	1.1	0.947	1.11	0.866	0.937	0.898	0.869
N fixed	0.614	0.902	0.914	0.703	1.17	0.829	1.08	0.96	0.883
P fixed	0.409	0.403	0.574	1.25	0.643	0.838	1.03	1.02	0.992
Q fixed	1.02	1	0.905	1.12	1.11	0.853	0.817	0.793	0.751
R fixed	1.09	1.94	1.32	1.68	1.39	0.757	1.18	0.978	0.95
V fixed	1.46	0.828	0.856	0.816	0.726	0.979	0.698	0.849	1.02
W fixed	1.81	0.986	1.51	0.909	0.662	0.919	0.747	0.952	1.08
Y fixed	0.926	1.89	1.2	0.853	1.04	1.46	0.778	0.868	0.959
pThr fixed	0.643	0.47	0.597	0.761	0.708	1.3	1.91	1.23	1.59
pTyr fixed	0.42	0.412	0.645	0.546	1.08	2.07	1.3	1	1.21
